The values below come from patent US20210198366A1 (NGM BIOPHARMACEUTICALS, published 2021).

To fix the notation:
B1: anti-B7-H7 antibody 2D7 (antibody, V domains shown)
VH: EVQLQQSGPELVKPGASVKISCKTSGYTFTEYTMHWVKQSHGKSLEWIGGINPNNYGAPYNQKFKGKATLTVDKSSNTAYMELRSLTSEDSAIYYCASGGYYFDYWGQGTTLTVSS
VL: DIVMTQSHKFMSTSFGDRVSITCKASQDVGTAVAWYQQKLGQSPKLLISWAFTRHTGVPDRFTGSGSGTDYTLTISSLQAEDLALYYCQQHYDTPFTFGSGTKLEIK
notes: Parental mouse hybridoma antibody raised against human B7-H7-Fc
B2: chimeric 2D7 antibody comprising the murine heavy chain and light chain variable regions of 2D7 and a human Fc region (antibody, V domains shown)
VH: B1 VH
VL: B1 VL
B3: humanized anti-B7-H7 antibody Hz2D7 (antibody, human IgG1, kappa, V domains shown)
VH: QVQLVQSGAEVKKPGASVKVSCKTSGYTFTEYTMHWVRQAPGQGLEWMGGINPNNYGAPYNQKFKGRVTMTVDTSISTAYMELSRLRSDDTAVYYCASGGYYFDYWGQGTLVTVSS
VL: DIQMTQSPSSLSASVGDRVTITCKASQDVGTAVAWYQQKPGKAPKLLIYWAFTRHTGVPSRFSGSGSGTDYTLTISSLQPEDFATYYCQQHYDTPFTFGQGTKVEIKR
B4: soluble biotinylated KIR3DL3 ECD (receptor)
chain: QDKPFLSAWPGTVVSEGQHVTLQCRSRLGFNEFSLSKEDGMPVPELYNRIFRNSFLMGPVTPAHAGTYRCCSSHPHSPTGWSAPSNPVVIMVTGVHRKPSLLAHPGPLVKSGETVILQCWSDVRFERFLLHREGITEDPLRLVGQLHDAGSQVNYSMGPMTPALAGTYRCFGSVTHLPYELSAPSDPLDIVVVGLYGKPSLSAQPGPTVQAGENVTLSCSSRSLFDIYHLSREAEAGELRLTAVLRVNGTFQANFPLGPVTHGGNYRCFGSFRALPHAWSDPSDPLPVSVTGNSRHL
modifications: biotinylated (site not stated)
notes: also called soluble biotinylated KIR3DF3 ECD (so in the source); soluble KIR3DL3
B5: soluble human B7-H7-Fc fusion protein (extracellular region of human B7-H7, aa 23-344, and a human Fc sequence) (Fc fusion, not shown: a dimerising Fc or GST)
chain: IFPLAFFIYVPMNEQIVIGRLDEDIILPSSFERGSEVVIHWKYQDSYKVHSYYKGSDHLESQDPRYANRTSLFYNEIQNGNASLFFRRVSLLDEGIYTCYVGTAIQVITNKVVLKVGVFLTPVMKYEKRNTNSFLICSVLSVYPRPIITWKMDNTPISENNMEETGSLDSFSINSPLNITGSNSSYECTIENSLLKQTWTGRWTMKDGLHKMQSEHVSLSCQPVNDYFSPNQDFKVTWSRMKSGTFSVLAYYLSSSQNTIINESRFSWNKELINQSDFSMNLMDLNLSDSGEYLCNISSDEYTLLTIHTVHVEPSQETASHN
notes: also called hB7-H7-Fc; soluble B7-H7

For assay [1], the target named is T1, human B7-H7 (soluble analyte in SPR) (human, UniProt Q9UM44 23-344, limits assumed).
T1 sequence: B5 chain
As to the kind of experiment: SPR (Biacore). On the procedure: (§1) The binding affinities of exemplary anti-B7-H7 antibodies to human B7-H7 and cyno B7-H7 were measured using SPR technology (Biacore system, GE Healthcare Life Sciences). Briefly, anti-Fc antibody (Sigma-Aldrich) was immobilized on all four flow cells of a CM5 chip using amine coupling reagents (GE Healthcare LifeSciences). Exemplary antibodies were captured on flow cells 2, 3, and 4 using flow cell 1 as a reference. Human B7-H7 or cyno B7-H7 (samples ranging from 0.62-40 nM) were injected at a flow rate of 50 μL/min at 37° C. Kinetic data were collected over time and fit using the simultaneous global fit equation to yield affinity constants (KD values) for each antibody.
The binding affinity of Hz2D7 to human B7-H7 and cyno B7-H7 was determined using SPR technology (Biacore system) as described herein and compared with the binding affinity of the parental antibody and with a chimeric 2D7 antibody comprising the murine heavy chain and light chain variable regions of 2D7 and a human Fc region.
In general terms: In SPR one partner is held on a chip, and binding of the other changes the refractive index at the surface.

Assay [2] deals with T2, human B7-H7 expressed on the cell surface (human, UniProt Q9UM44 23-414).
T2 sequence: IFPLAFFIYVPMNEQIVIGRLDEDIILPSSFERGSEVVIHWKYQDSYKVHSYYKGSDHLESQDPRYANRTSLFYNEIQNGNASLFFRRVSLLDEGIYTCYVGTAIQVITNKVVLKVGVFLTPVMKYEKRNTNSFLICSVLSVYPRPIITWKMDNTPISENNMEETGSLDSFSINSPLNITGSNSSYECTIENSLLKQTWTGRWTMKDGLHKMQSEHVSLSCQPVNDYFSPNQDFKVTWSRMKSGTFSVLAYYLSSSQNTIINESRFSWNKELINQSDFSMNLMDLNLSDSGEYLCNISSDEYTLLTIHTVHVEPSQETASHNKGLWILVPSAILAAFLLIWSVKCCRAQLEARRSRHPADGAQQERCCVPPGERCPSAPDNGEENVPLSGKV
As to the kind of experiment: cell-based or functional assay.

Assay [3] deals with T1, human B7-H7 (soluble analyte in SPR). Put plainly: SPR (Biacore), antibody captured by anti-Fc on CM5 chip, B7-H7 injected, 37 C. On the procedure: as §1
Assay [4] concerns the target B5. Put plainly: FACS competition: antibody titrated against soluble hB7-H7-Fc binding to HEK-293 cells expressing human KIR3DL3. How it is done:
(§2) Exemplary anti-B7-H7 antibodies identified by ELISA and FACS were tested for their ability to block binding of soluble B7-H7 to receptors KIR3DL3 or CD28H in a FACS assay. HEK-293 cells were transiently transfected with a construct encoding (i) a membrane-bound KIR3DL3 protein or (ii) a membrane-bound CD28H protein. After 48 hours, transfected cells were suspended in ice cold PBS containing 1% FBS and 0.1% sodium azide and incubated on ice in the presence of […]/ml of soluble human B7-H7-Fc protein and antibodies 2D7, 1D3, 28F3, 16D5, 2F10, 5F7, 5B10, 5C9, or 3H6 (serially diluted from […] to 4.6 ng/ml). A second incubation with an anti-human Fc secondary antibody was performed to detect cells bound by the soluble B7-H7-Fc. The cells were analyzed on a BD FACSCalibur instrument (BD Biosciences) and the data was processed using FlowJo software. Calculated IC50s are shown Table 12.

The target in assay [5] is B5. Put plainly: FACS competition: antibody titrated against soluble hB7-H7-Fc binding to HEK-293 cells expressing human CD28H. On the procedure: as §2
The target in assay [6] is T2, human B7-H7 expressed on the cell …. As to the kind of experiment: cell-based fluorescence assay (CellInsight): soluble biotinylated KIR3DL3 ECD on cells transfected with B7-H7, Alexa Fluor 488 streptavidin detection; soluble biotinylated KIR3DL3 ECD on B7-H7-transfected cells. On the procedure: (§3) The molecule CD28H has previously been identified as a receptor of B7-H7 (Zhu et al., 2013, Nature Communications, ncomms3043; Zhu et al. refer to B7-H7 as “B7-H5”). Studies by the inventors have identified KIR3DL3 as a second receptor for B7-H7. HEK-293T cells were transiently transfected with a KIR3DL3 construct. 40,000 cells were aliquoted into each well of a 384-well plate and were transfected with 200 ng of plasmid DNA encoding KIR3DL3 using Lipofectamine™ 2000 (ThermoFisher Scientific). After 48 hours, soluble B7-H7-Fc (serially diluted from 10 to 0.16 pg/ml) was added to the wells and plates were incubated from one hour at room temperature. An Alexa Fluor® 488-labeled anti-human Fc secondary antibody was added to the wells and plates were incubated for one hour at room temperature. Cells were washed with HBSS and fixed for 15 minutes with 7.4% formalin in PBS. Cells were washed with PBS and the fluorescence signals were detected using a CellInsight™ platform (ThermoFisher Scientific). A similar experiment was conducted with cells transiently transfected with a B7-H7 construct and soluble biotinylated KIR3DF3 ECD. An Alexa Fluor® 488-labeled streptavidin was used for detection.

Assay [7] addresses T3, human KIR3DL3 expressed on the cell surface (human, UniProt Q8N743 26-410).
T3 construct: also called cells expressing human KIR3DL3
As to the kind of experiment: cell-based fluorescence assay (CellInsight): soluble B7-H7-Fc titrated on HEK-293T cells transfected with KIR3DL3, Alexa Fluor 488 anti-human Fc detection; soluble B7-H7-Fc on KIR3DL3-transfected cells. On the procedure:
as §3

On to B1, for which the Kd in assay [1] and in assay [3] was under 0.1 nM each time. The same molecule registered a koff in assay [1] of 1e-05 s⁻¹. Further, the “Induction of NK-92 cytotoxicity EC50” value in assay [2] came out at 1 nM. Also, the IC50 is 2 nM in assay [4] and 2.1 nM in assay [5].

Regarding B2, in assay [1], the Kd is under 0.1 nM and the koff is 5.61e-06 s⁻¹.

In assay [1], B3 gave a Kd of under 0.1 nM and a koff of 1.01e-05 s⁻¹.

For B4, the Kd in assay [6] is 192 nM. This counts as sub-micromolar.

B5 showed a Kd in assay [7] of 15 nM.

In general, Kd refers to a measure of binding affinity in units of concentration. Low values mean tighter binding, high ones weaker binding. One may read the koff as a measure of how fast the partners let go of each other. A word on the IC50: it is the concentration needed to halve the response being measured. Higher therefore signals weaker potency.
